Reference: the nanobody polyreactivity screen of Harvey et al. (2022)

Assay: yeast display, Sf9 membrane polyspecificity reagent, FACS + sequencing; frameworks hold sequencing errors
Method in brief: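 Galactose induction of a Saccharomyces cerevisiae BJ5465 synthetic nanobody display library ran 36–48 hours. The cells were then stained for 1 hour at 4 °C with 10% biotinylated, detergent-solubilized Sf9 membrane reagent, pulled down on streptavidin microbeads and FACS-sorted into low and high (top ~1%) gates on expression and reagent-binding fluorescence. Labels for polyreactivity follow the gate of origin.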
In the case of “QVQLVESGGGLVQAGGSLRLSCAASGLIFKYNAMGWYRHAPGKERELVAAISTSGGSTYYADSVKGRFTISRDNAKNTVYLQMNSLKPEDNAVYFCNAVAGRPFRYYYWGQGTQVTVSS”, the “polyreactivity (PSR sort gate)” value was “high polyreactivity”. In the case of “QVQLVESGGGLVQAGGSLRLSCAASGLIFKYNAMGWYRQAPGKERELVAAITWSGGITYADSVKGRFTISRDNAKNTVYLQMNSLKPEDTAVYYCAARGYWQPRPRRRYDYWGQGTQVTVSS”, the “polyreactivity (PSR sort gate)” value was “high polyreactivity”. For “QVQLVESGGGLVQAGGSLRLSCAASGLIFKYNGRGWNRQAPGNVRELGAAITKRGGSTYYADSVKGRFTISRDKAKNTVYLQMNSLKPEDTAVYYCAAGRAGRKDYYWGQGTQVTVSS”, the “polyreactivity (PSR sort gate)” value was “high polyreactivity”. With “QVQLVESGGGLVQAGGSLRLSCAASGLIFLDYAMGWYRQAPGKERELVAAISRSGGRTYYADSVKGRFTISGDNAKNTVYLQMNSLKPEDTAVYYCAADGSRKSEIYDYWGQGTQVTVSS” the “polyreactivity (PSR sort gate)” value was “high polyreactivity”. In the case of “QVQLVESGGGLVQAGGSLRLSCAASGLIFLEYAMGWYRQAPGKEREMVAAISTSGGSTYYADSVKGRFTISRDNAKNTVYLQLNSLTPEDTAVYYCAADPVYNYYFDDGDYWGQGTQVTVSS”, the “polyreactivity (PSR sort gate)” value was “low polyreactivity”. With “QVQLVESGGGLVQAGGSLRLSCAASGLIFLGNAMGWYRQAPGKERELVAAISRSGGTTYYADSVKGRFTISRDNAKNTVYLQMNSLKPEDTAVYYCNAYNPYYRATVSSRGYGYWGQGTQVTVSS” the “polyreactivity (PSR sort gate)” value was “high polyreactivity”. With “QVQLVESGGGLVQAGGSLRLSCAASGLIFLRYAMGWYRQAPGTERELVAVISSGGRTYYADSVKGRFTISRDNAKNTVYLQMNSLKPEDTAVYYCAARTRSYWGTYGSYHYDYWGQGTQVTVSS” the “polyreactivity (PSR sort gate)” value was “high polyreactivity”. For “QVQLVESGGGLVQAGGSLRLSCAASGLIFLSHTMGWYRQAPGKERELVATIDGGAGSTYYADSVKGRFTFSRDNAKNTVYLQMNSLKPEDTAVYYCAATTIPGWFGSFPVSAGDYWGQGTQVTVSS”, the “polyreactivity (PSR sort gate)” value was “low polyreactivity”. In the case of “QVQLVESGGGLVQAGGSLRLSCAASGLIFLWYAMGWYRQAPGKERELVAAIRSSGDSTYYADSVKGRFTISRDNAKNTVYLQMNSLKPEDTAVYYCNRRKTNSRYDYCGQGTQVTVSS”, the “polyreactivity (PSR sort gate)” value was “low polyreactivity”. In the case of “QVQLVESGGGLVQAGGSLRLSCAASGLIFNIYAMGWYRQAPGKARELVATIRYSGGSTNYADSVKGRFTISRDNAKNTVYLQMNSLKPEVTAVYYCNAGYYPTGYDYWGQGTQVTVSW”, the “polyreactivity (PSR sort gate)” value was “low polyreactivity”. For “QVQLVESGGGLVQAGGSLRLSCAASGLIFNIYAMGWYRQAPGKERELVAAISKSGGSTYYADSVKGRFTISRDNAKNTVYLQMNSLKPEDTAVYYCAVRSMRVDKYGYWGQGTQVTVSS”, the “polyreactivity (PSR sort gate)” value was “high polyreactivity”. With “QVQLVESGGGLVQAGGSLRLSCAASGLIFNNYAMGWYRQAPGKERELVATISRTGTSTYYADSVKGRFTISRDNAKNTVYLQMNSLKPEDTAVYYCNAVIQLFEWGWDDEYDYWGQGTQVTVSS” the “polyreactivity (PSR sort gate)” value was “low polyreactivity”. For “QVQLVESGGGLVQAGGSLRLSCAASGLIFNRNDMGRYRQAPGKETELVAAISGDGGITYYADSVKGRFTISRDNAKNTVYLQMNSLKPEDTAVYYCNAGFTWGDWYDYWGQGTQVTVSS”, the “polyreactivity (PSR sort gate)” value was “low polyreactivity”. For “QVQLVESGGGLVQAGGSLRLSCAASGLIFNYYAMGWYRQAPGKERELVAAISYNGGTTYYADSVKGRFTISRDNAKNTVYLQMNSLKPEDTAVYYCAAEQLVSGYDYWGQGTQVTVSS”, the “polyreactivity (PSR sort gate)” value was “low polyreactivity”. In the case of “QVQLVESGGGLVQAGGSLRLSCAASGLIFPFYTMGWYRQAPGKERELVASISSGASTYYADSVKGRFTISRDNAKNTVYLQMNSLKPEDTAVYYCNADTFAWEGQRKWFAYDYWGQGTQVTVSS”, the “polyreactivity (PSR sort gate)” value was “low polyreactivity”. In the case of “QVQLVESGGGLVQAGGSLRLSCAASGLIFPSYAMGWYRQAPGKEMELVAAITFSGSDTNYADSVKGRFTISRDNAKNTVYLQMNSLKPEDTAVAYCAAAYFDFWGWLHDYWGQGTQVTVSS”, the “polyreactivity (PSR sort gate)” value was “low polyreactivity”. In the case of “QVQLVESGGGLVQAGGSLRLSCAASGLIFPTNAMGWYRPAPGKERELVAAISSVGSTYYADSVKGRFTISRDNAKNTVYLQMNSLKPEDTAVYYCAAYWYGSQYKWRYDYWGQGTQVTVSS”, the “polyreactivity (PSR sort gate)” value was “low polyreactivity”. In the case of “QVQLVESGGGLVQAGGSLRLSCAASGLIFPWTYAMGWYRQAPGKEREFVAAITSSDGSTYYADSVKGRFTISRDNAKNTVYLQMNSLKPEDTAVYYCAAVGWDYDWDYYYWGQGTQVTVSS”, the “polyreactivity (PSR sort gate)” value was “high polyreactivity”. In the case of “QVQLVESGGGLVQAGGSLRLSCAASGLIFPYYAMGWNRQAPGKESELVAASSGSGGRTYYADSVKGRFTISRDNAKITVYLQMNSRKPEDTAVYYCAAAVLDSYTRYIWYIYDYWGQGTQVTVSS”, the “polyreactivity (PSR sort gate)” value was “high polyreactivity”. With “QVQLVESGGGLVQAGGSLRLSCAASGLIFPYYAMGWYRPAPGKERELVAAISRSGDSTYYADSVKGRFTISRDNAKNTVYLQMYSLKPEDTAVYYCAAVLSYSYVRYNYWGQGTQVNVSS” the “polyreactivity (PSR sort gate)” value was “high polyreactivity”. For “QVQLVESGGGLVQAGGSLRLSCAASGLIFPYYAMGWYRQAHGKERELVAAITRRGGSTYYADSVKGRFTISRDNAKNTVYLQMNSLKPEDTAVYYCNKVDQGRYGYWGQGTQVTVSS”, the “polyreactivity (PSR sort gate)” value was “high polyreactivity”. For “QVQLVESGGGLVQAGGSLRLSCAASGLIFQRNTMGWYRQAPGKERELVAAISRSGGSTYYADSVKGRFTISRDNAKNTVYLQMNSLKPEDTAVYYCAALIFRHRGKDDDYWGQGTQVTVSS”, the “polyreactivity (PSR sort gate)” value was “high polyreactivity”. With “QVQLVESGGGLVQAGGSLRLSCAASGLIFQYYVMGWYRQAPGKERELVAAISARGGGTYYADSVKGRFTISRDNEKITVYLQMNSLKPEDTAVYYCAADFGTIRVYSGDYWGQGTQVTVSS” the “polyreactivity (PSR sort gate)” value was “high polyreactivity”. For “QVQLVESGGGLVQAGGSLRLSCAASGLIFRAYAMGWYRQAPGKERELVAAISRNGGSTYYADSVKGRFTISRDNAKTTVYLQMNSLKPEDTAVYYCNKVSRSSVYLDYYYWGQGTQVTVSS”, the “polyreactivity (PSR sort gate)” value was “high polyreactivity”. With “QVQLVESGGGLVQAGGSLRLSCAASGLIFRAYAMGWYRQAPGKERELVAAITRSGGSTYYADSVKGRFTISRDNAKNTVDLQMNSLKPEDTAVYYCATAQWVGYWDDYWGQGTQVTVSS” the “polyreactivity (PSR sort gate)” value was “high polyreactivity”. In the case of “QVQLVESGGGLVQAGGSLRLSCAASGLIFRGYVMGWYRQAPGKERELVAAISRRGVNTYYADSVKGRFTISRDNAKNTFYLQMNSLKPEDTAVYYCNAYVHTQGGDYWGQGTQVTVSS”, the “polyreactivity (PSR sort gate)” value was “high polyreactivity”. In the case of “QVQLVESGGGLVQAGGSLRLSCAASGLIFRHYAMGWYRQAPGKERELVAVISSGAGTYYADSVKGRFTISRDNAKNTVYLQMISMKPEDTAVYYSARDLYYRYRYFITGLYDSWGQGTQVTVSS”, the “polyreactivity (PSR sort gate)” value was “low polyreactivity”. For “QVQLVESGGGLVQAGGSLRLSCAASGLIFRIYAMGWYRQAPGKERELVAAISSTGSRTYYADSVKGRFTISRDNAKNTVYLQMNSLKPEDTAVYYCAAKAYINNYDYWGQGTQVTVSS”, the “polyreactivity (PSR sort gate)” value was “high polyreactivity”. For “QVQLVESGGGLVQAGGSLRLSCAASGLIFRKYAMGWYRQAPGKERELVAAISRSGGSTYYADSVKGRFTISRDNAKTTVYLQMNSLKPEDTAVYYGAAQQHYGDGYWGQGTQVTVSS”, the “polyreactivity (PSR sort gate)” value was “high polyreactivity”. With “QVQLVESGGGLVQAGGSLRLSCAASGLIFRLYAMGWYIQAPGKERELVAAISGGGGSTYYADSVKGRFTISRDNAKNTVYLQMNSLKPEDTAVYYCAATYSRGYWWSEYDYWGQGTQVTVSS” the “polyreactivity (PSR sort gate)” value was “low polyreactivity”. In the case of “QVQLVESGGGLVQAGGSLRLSCAASGLIFRNYAMGWYRQAPGKERELVAAISSGGDNTYYADSVKGRFTISRDNAKNTVYLQMNSLKPEDTAVYYCAAGRYVGPSYYAYGYWGQGTQVTVSS”, the “polyreactivity (PSR sort gate)” value was “high polyreactivity”. With “QVQLVESGGGLVQAGGSLRLSCAASGLIFRRYALGWYRQAPGKERELVAVISSGGRTYYADSVKGRFTISRDNAKNTVYLQMNSLKPEDTAVYYCAARTRSYWGTYGSYHYDYWGQGTQVTVSS” the “polyreactivity (PSR sort gate)” value was “high polyreactivity”. For “QVQLVESGGGLVQAGGSLRLSCAASGLIFRSYAMGWYRQEPGKERELVARISIRGGSTYYADSVKGRFTISRDNAKNTVYLQMNSLKPEDTAVYYCAADYASWSNWGYEYWGQGTQVTVSS”, the “polyreactivity (PSR sort gate)” value was “high polyreactivity”. In the case of “QVQLVESGGGLVQAGGSLRLSCAASGLIFRTYTMGWYRQAPGKERELVATITRRGGTTYYADSVKGRFTISRDNAKNTVYLQMNSLKPEDTAVYYCAKSPYYTWKYDYWGQGTQVTVSS”, the “polyreactivity (PSR sort gate)” value was “high polyreactivity”. With “QVQLVESGGGLVQAGGSLRLSCAASGLIFRWYAMGWSRQAPGKEWELVAAINYSGGRTYYADSVKGRFTISRDNAKNTVYLQMNSLKPEDTAVYYCAADGTYVWGSEEGNYWGQGTQVTVSS” the “polyreactivity (PSR sort gate)” value was “low polyreactivity”. In the case of “QVQLVESGGGLVQAGGSLRLSCAASGLIFRYNAMGWYRQAPGKEMELVASITSDGSTNYADSVKGRFTISRDNAKNTVYLQMNSLKPEDTAVYYCAADGYTYWYYQLIPDYDYWGQGTQVTVSS”, the “polyreactivity (PSR sort gate)” value was “low polyreactivity”. With “QVQLVESGGGLVQAGGSLRLSCAASGLIFRYYAMGWYRQAPGKERELVAAISYSGGRTYYADSVKGRFTISRDNAKNTVYLQMNSLKPEDTAVYYCAAVDRRGYRYALDYWGQGTQVTVSS” the “polyreactivity (PSR sort gate)” value was “high polyreactivity”. In the case of “QVQLVESGGGLVQAGGSLRLSCAASGLIFRYYAMGWYRQATGKEREFVAAITWRTGSTYYADSVKGRFTISRDNAKNTVYLQMNSLKPEDTAVYYCAARGGRRYDYWGQGTQVTVSS”, the “polyreactivity (PSR sort gate)” value was “high polyreactivity”. For “QVQLVESGGGLVQAGGSLRLSCAASGLIFSAYAMGWYRQAPGKERELVAGISRRGSTYYADSVKGRFTISRDNAKNTVYLQMNSLKPEDTAVYYCAAYFRVRFRASGYDYWGQGTQVTVSS”, the “polyreactivity (PSR sort gate)” value was “high polyreactivity”. With “QVQLVESGGGLVQAGGSLRLSCAASGLIFSDYAMGWYRQEPGKERELVAAIRSGGRTYYADSVKGRFTISRDNAKNTVYLQMNSLKPEDTAVYYCNKLYRRYPVPREYDYWGQGTQVTVSS” the “polyreactivity (PSR sort gate)” value was “high polyreactivity”. For “QVQLVESGGGLVQAGGSLRLSCAASGLIFSGYTMGWYRQAPGKERELVAAISKSGGNTYYADSVTGRFTISRDNAKNTVYLQMNSLKPEDTAVYYCNRDVTYYRGYDYWGQGTQVTVSS”, the “polyreactivity (PSR sort gate)” value was “high polyreactivity”.
